The assay deals with TSG101 (UniProt Q99816). Description: cell-based or functional assay.
Sequence of UniProt Q99816 (Q99816 2-390 limits assumed): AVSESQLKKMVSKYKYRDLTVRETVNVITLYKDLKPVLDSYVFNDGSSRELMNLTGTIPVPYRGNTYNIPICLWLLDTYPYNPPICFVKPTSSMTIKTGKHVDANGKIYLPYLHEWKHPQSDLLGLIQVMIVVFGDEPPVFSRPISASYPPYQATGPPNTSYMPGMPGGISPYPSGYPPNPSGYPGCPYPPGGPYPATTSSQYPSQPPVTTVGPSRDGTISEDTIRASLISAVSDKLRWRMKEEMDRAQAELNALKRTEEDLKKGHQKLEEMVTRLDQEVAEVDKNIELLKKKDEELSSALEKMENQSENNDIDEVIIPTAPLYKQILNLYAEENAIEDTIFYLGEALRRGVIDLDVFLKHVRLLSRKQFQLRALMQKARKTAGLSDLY

For “Vps28 mutant with deletion of the N-terminal 27 amino acids, C-terminal Flag tag (from UniProt Q9UK41 28-221)”, the release of HIV-1 from transfected 293T cells turned out to be 72 % reduction. Still for that read-out and setting: with “Vps28 mutant with deletion of amino acids 126 to 167, C-terminal Flag tag (from UniProt Q9UK41 1-125; Q9UK41 168-221)” the figure was 63 % inhibition. In turn, “Vps28ΔC, C-terminal 43-amino acid deletion mutant of Vps28, C-terminal Flag tag (from UniProt Q9UK41 1-178)” showed a release of HIV-1 from transfected 293T cells of 67 % reduction and a release of HIV-1 from transfected 293T cells, repeated experiments of 53 to 75 % inhibition.

These data come from patent US8021833.
